A word on the Km: it is the concentration of substrate that gives half-maximal velocity. One may read the Vmax as the top rate of the reaction or transport when substrate is in excess. In general, kcat/Km refers to the turnover number divided by the Michaelis constant.

What all share (test): purified protein
Data set [1] deals with CC(=O)SCCNC(=O)CCNC(=O)[C@H](O)C(C)(C)COP(=O)(O)OP(=O)(O)OC[C@H]1O[C@@H](n2cnc3c(N)ncnc32)[C@H](O)[C@@H]1OP(=O)(O)O. The conditions noted are these: co-substrate oxaloacetate, 100 mM Tris-HCl pH 7.8, 55°C.
Data set [2] relates to CC(C)(COP(=O)(O)OP(=O)(O)OC[C@H]1O[C@@H](n2cnc3c(N)ncnc32)[C@H](O)[C@@H]1OP(=O)(O)O)[C@@H](O)C(=O)NCCC(=O)NCCS. Conditions: citrate cleavage direction, 55°C.
The test system of data set [3] is CCC(=O)SCCNC(=O)CCNC(=O)[C@H](O)C(C)(C)COP(=O)(O)OP(=O)(O)OC[C@H]1O[C@@H](n2cnc3c(N)ncnc32)[C@H](O)[C@@H]1OP(=O)(O)O. The conditions noted are these: co-substrate oxaloacetate, 100 mM Tris-HCl pH 7.8, 55°C.
For the next data set, the system named is O=C(O)CC(=O)C(=O)O. The conditions noted are these: co-substrate acetyl-CoA, 100 mM Tris-HCl pH 7.8, 55°C.

As to “Si-citrate/2-methylcitrate synthase (AHF97591) (Desulfurella acetivorans A63)”, the Km in data set [1] was found to be 14 ± 1.8 µM; in data set [2], 41 ± 11 µM; in data set [3] it was 22 ± 3.5 µM; in the data set on O=C(O)CC(=O)C(=O)O it was 30 ± 4.4 µM. Also, the Vmax was determined as 26 µmol/min/mg in data set [1], 0.1 µmol/min/mg in data set [2], 7.4 µmol/min/mg in data set [3] and 21 µmol/min/mg in the data set on O=C(O)CC(=O)C(=O)O. The kcat/Km amounted to 1500 M⁻¹ s⁻¹ in data set [1], 2000 M⁻¹ s⁻¹ in data set [2], 300 M⁻¹ s⁻¹ in data set [3] and 600 M⁻¹ s⁻¹ in the data set on O=C(O)CC(=O)C(=O)O.

Values taken from article PMC11861179, “Propionate metabolism in Desulfurella acetivorans” (Frontiers in Microbiology, 2025).
